Data reported in PMC3592470 (Nucleic Acids Research, 2012).

T1: BcgI B subunit (UniProt Q07606 1-341)
T1 sequence (looked up): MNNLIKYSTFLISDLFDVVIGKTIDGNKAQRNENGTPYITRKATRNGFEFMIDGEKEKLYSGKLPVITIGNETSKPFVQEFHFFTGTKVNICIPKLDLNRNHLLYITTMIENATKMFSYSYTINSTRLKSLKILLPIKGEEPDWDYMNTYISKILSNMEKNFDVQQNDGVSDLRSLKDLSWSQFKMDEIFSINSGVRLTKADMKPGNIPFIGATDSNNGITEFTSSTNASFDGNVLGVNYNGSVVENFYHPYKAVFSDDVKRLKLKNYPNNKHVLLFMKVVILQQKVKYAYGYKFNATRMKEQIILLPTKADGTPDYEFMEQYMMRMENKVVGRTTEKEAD


Tests used:
[1] = target: T1, BcgI B subunit; assay: AUC
[2] = target: T1, BcgI B subunit; assay: native MS

stoichiometry N [1]	stoichiometry N [2]	Binder
2 A per B	–	BcgI A subunit, wild type (as a subunit of WT BcgI) (enzyme, UniProt Q07605 1-637, looked up) MVNEKTSTDQLVRRFIEDLGVTYEEQGSSNIQIKQALRSASKSKSQSGVGKPEFIFFSGNHLIIVEDKLAIDKLEYKNNDGIIDTEFPFRRDYAVNGAVHYARHIIEKTNSYKEVIAIGIAGDGLHYQIHPYFVSETELKKLPEMKSLEDISPENIEEFYKVAVLGELPKEERELREVNKIAADMHEDLRNYGQLEGEKKATVVSAILLALEEPTFSLNQLIGSDRVGGTDGEIIFNAVRVYLENAGIVPYAKVGEMLDQFIFIQRDVTLNTVNSNLEMTPLKYFATTLEAEIMDKIKSNTDFDILGNFYGEFVKYGGNDGNPLGIVLTPRHITSLMAELIGINKSDFVLDPACGTGAFLISAMNRMLGQAENDDERRDIKQNRLYGIEIQQKLFTIATTNMILRGDGKSNLIRDNCLTFDNTIMNGYGINKILMNPPYSQAKNDQTQHLSELSFIQQALEMLVVGGKLCAIVPQSTMVGKNRHDKARKKQILKQHTLETVITLNKDTFHGVGVNPCIVIFKAGIKHPENKRVSFVNFEDDGHVVRKHVGLVGDGTEKGKREHLLAVLAGDEDDGTDLIVKTAIKDTDEWLHSFYYFNDGIPSEDDFYKTVANYLTFQFDMTANGKGYLFEGVEENE
–	2 A per B	BcgI A subunit, E53A mutant (as a subunit of the BcgI E53A protein) (enzyme, UniProt Q07605 1-637, looked up) MVNEKTSTDQLVRRFIEDLGVTYEEQGSSNIQIKQALRSASKSKSQSGVGKPAFIFFSGNHLIIVEDKLAIDKLEYKNNDGIIDTEFPFRRDYAVNGAVHYARHIIEKTNSYKEVIAIGIAGDGLHYQIHPYFVSETELKKLPEMKSLEDISPENIEEFYKVAVLGELPKEERELREVNKIAADMHEDLRNYGQLEGEKKATVVSAILLALEEPTFSLNQLIGSDRVGGTDGEIIFNAVRVYLENAGIVPYAKVGEMLDQFIFIQRDVTLNTVNSNLEMTPLKYFATTLEAEIMDKIKSNTDFDILGNFYGEFVKYGGNDGNPLGIVLTPRHITSLMAELIGINKSDFVLDPACGTGAFLISAMNRMLGQAENDDERRDIKQNRLYGIEIQQKLFTIATTNMILRGDGKSNLIRDNCLTFDNTIMNGYGINKILMNPPYSQAKNDQTQHLSELSFIQQALEMLVVGGKLCAIVPQSTMVGKNRHDKARKKQILKQHTLETVITLNKDTFHGVGVNPCIVIFKAGIKHPENKRVSFVNFEDDGHVVRKHVGLVGDGTEKGKREHLLAVLAGDEDDGTDLIVKTAIKDTDEWLHSFYYFNDGIPSEDDFYKTVANYLTFQFDMTANGKGYLFEGVEENE
